# Results taken from paper PMC2836074 (The Journal of Biological Chemistry, 2009).
# B1: HA-Bak (natural protein)
# chain: MASGQGPGPPRQECGEPALPSASEEQVAQDTEEVFRSYVFYRHQQEQEAEGVAAPADPEMVTLPLQPSSTMGQVGRQLAIIGDDINRRYDSEFQTMLQHLQPTAENAYEYFTKIATSLFESGINWGRVVALLGFGYRLALHVYQHGLTGFLGQVTRFVVDFMLHHCIARWIAQRGGWVAALNLGNGPILNVLVVLGVVLLGQFVVRRFFKS
# What was measured:
# EGFP-F1LΔBH3 = EGFP-F1LΔBH3 (vaccinia virus strain Copenhagen, UniProt P68450 1-226, lacks amino acids 93–108); assay: co-IP
# EGFP-F1LΔBH1 = EGFP-F1LΔBH1 (vaccinia virus strain Copenhagen, UniProt P68450 1-226, lacks amino acids 144–156); assay: co-IP
binder,measurement,setting,value
B1,fold decrease in Bak binding compared with wild-type F1L,EGFP-F1LΔBH3,3 fold
same,fold decrease in Bak binding compared with wild-type F1L,EGFP-F1LΔBH1,8 fold
